Results taken from US20180185504A1 (Regeneron, published 2018).

T1: mouse PRLR with an HA tag on HEK293 cells (mouse, UniProt Q08501 20-608)
T1 construct: whole, on cells; also called HEK293/mPRLR; rodent PRLR; not shown: HA tag
T1 sequence (looked up): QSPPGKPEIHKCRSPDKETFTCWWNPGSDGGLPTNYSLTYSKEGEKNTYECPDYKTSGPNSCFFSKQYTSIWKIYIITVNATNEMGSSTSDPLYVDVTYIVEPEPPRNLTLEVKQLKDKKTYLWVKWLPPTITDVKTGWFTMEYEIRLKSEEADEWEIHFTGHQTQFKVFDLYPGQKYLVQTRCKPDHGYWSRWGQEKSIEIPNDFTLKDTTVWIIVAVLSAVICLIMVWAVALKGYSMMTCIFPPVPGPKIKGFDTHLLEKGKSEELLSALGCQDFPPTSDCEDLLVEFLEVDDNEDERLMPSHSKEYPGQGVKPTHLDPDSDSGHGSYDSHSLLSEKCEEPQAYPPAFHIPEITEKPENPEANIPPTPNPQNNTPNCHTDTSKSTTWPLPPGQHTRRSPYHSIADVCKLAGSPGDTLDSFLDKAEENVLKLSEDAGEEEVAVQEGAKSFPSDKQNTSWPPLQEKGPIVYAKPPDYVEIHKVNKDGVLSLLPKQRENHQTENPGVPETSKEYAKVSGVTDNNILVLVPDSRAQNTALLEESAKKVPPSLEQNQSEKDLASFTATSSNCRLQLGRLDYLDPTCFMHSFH

B1: H1H6765P (antibody, human IgG1, V domains shown)
VH: EVQLVESGGGVVRPGGSLRLSCVGSGFSFDDHGMNWVRQGPGKGLEWVSGFNWNGGSTNYAESVKGRFTISRDNARNSLFLQMNSLRAEDTALYYCVRGRSGWFNDAFDVWGPGTMVTVSS
VL: EIVLTQSPGTLSLSPGERATLSCRASQTINSNYLAWYRQKPGQTPRLLIYGTSSRATGIPDRFSGSGSGTDFSLTISRLEPEDFAVFYCQQYAGLPTFGPGTKVDIK
B2: H1H6783P (antibody, human IgG1, V domains shown)
VH: QVQLQQSGPGLVKPSQTLSLTCAISGDSVSSNTFAWNWIRQSPSRGLEWLGRTYYRSKWYIDYAESVKSRITITPDTSKNQFSLQLNSVTPEDTALYYCAGGYTYAPRGAFDIWGQGTMVTVSS
VL: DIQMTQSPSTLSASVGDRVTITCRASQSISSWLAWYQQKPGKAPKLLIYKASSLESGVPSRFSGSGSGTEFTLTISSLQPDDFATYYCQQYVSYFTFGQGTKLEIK
B3: H1H6781P (antibody, human IgG1, V domains shown)
VH: EVQLVESGGDLVQPGESLRLSCTASGFTFNSYEMNWVRQAPGKGLEWVSYISSSGGTKYYVDSVKGRFTISRDNAKKSLYLQMNSLRADDTALYYCARLNGVDVFDIWGQGTMVTVSS
VL: DIQMTQSPSSLSASVGDRVTITCRASQDIFNYLAWFQQKPGKVPELLISAASTLQSGVPSRFSGSGSGTYFTLTISSLQPEDIATYYCQRYNSAPLTFGGGTKVEIK
B4: H1H6785P (antibody, human IgG1, V domains shown)
VH: EVQLVESGGGLVQPGGSLRLSCAASGFTFSSYEMNWVRQAPGKGLEWISYISSRGGTIYYADSIKGRFTIYRDNARNSLYLQMNSLRAEDTAIYYCARLSGVDIFDIWGQGTMVTVSS
VL: DIQMTQSPSSLSASVGDRVTITCRASQGISNYLAWYQQKPGKVPKLLIYFASTLQSGVPSRFSGGGSGTDFTLTISSLQPEDVATYYCQRYNSAPLTFGGGTKVEIK
B5: H1H6953N (antibody, human IgG1, V domains shown)
VH: EVQLLESGGGLVQPGGTLRLSCAASGFTFSAYAMSWVRQAPGKGLEWVSSINVRAGDTYYADSVKGRFTISRDNSKNTLFLLMNSLRAEDTAAYYCAKARYSSNWGFDFWGQGTLVTVSS
VL: DIVMTQSPDSLTVSLGARTTINCQSSQTILHSSNNHNYLAWYQQKPGLPPKLLIYWSSTRESGVPDRFSGSGSGTDFTLTISSLQAEDVAIYYCQQYSNTPYTFGQGTKLEIN
notes: Tested with human IgG1 Fc (H1H)
B6: H1H6975N (antibody, human IgG1, V domains shown)
VH: EVHLVESGGGLVQPGGSLRLSCAASGFTFSSYEMNWVRQTPGKGLEWISHISSRSVIIYYADSVKGRFTISRDNAKNSLFLQMNSLRAEDTAVYFCAGITIFGIPEYWGQGTLVTVSS
VL: EIVLTQSPATLSLSPGERATLSCRASQSVSSYFAWYQQKPGQAPRLLIYDASSRATGIPTRFSGSGSGTDFTLTISSLEPEDFAVYYCQQRSSWPITFGQGTRLEIK
notes: Tested with human IgG1 Fc (H1H); also called H1H6975P
B7: H1H6807P (antibody, V domains shown)
VH: QVQLVESGGGVVQPGRSLRLSCAASGFTFSDYNMHWVRQAPGKGLEWVAVIWYDGSNKHYADSVKGRFTISRDNSKNTLYLQMNSLRAEDTAVYYCARDGFTIFGMVLDYWGQGTLVTVSS
VL: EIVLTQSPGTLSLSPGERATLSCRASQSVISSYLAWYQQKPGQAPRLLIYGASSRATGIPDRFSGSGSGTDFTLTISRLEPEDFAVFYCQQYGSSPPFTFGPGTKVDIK
B8: H1H6960N (antibody, human IgG1, V domains shown)
VH: EVQLVESGGGLVKPGGSLRLSCAASGITFSSYSMNWVRQAPGKGLEWVSSISTRSSLIHYADSVKGRFTISRDNAKNSLYLQMNSLRDEDTAVYYCARWDAAAAFDYWGQGTLVIVSS
VL: DIQLTQSPSFLSASVGDRVTITCWASQGISSYLAWYQQKPGKAPKLLIYVASTLQSGVPSRFSGSGSGTEFTLTISSLQPEDFATYFCQQLNSYPLTFGGGTKVEIK
notes: as for B5
B9: H1H6959N2 (antibody, human IgG1, V domains shown)
VH: EVQLVESGGGLVQPGRSLRLSCAASGFTFDDYAMHWVRQAPGKGLEWVSGISWHSGIIGYADSVKGRFTISRDNAKNSLYLQMNSLRTEDAALYYCAKIGSYFYFDSWGQGTLVTVSS
VL: EIVLTQSPGTLSLSPGERATLSCRASQSVSSNYLAWYQQKPGQAPRLLIYGASSRATGIPDRFSGSGSGTDFTLTISRLEPEDFAVYYCQQFGSSGYTFGQGTNLEIK
notes: as for B5
B10: H1H6966N (antibody, human IgG1, V domains shown)
VH: QVQLVQSGAEVQKPGASVKVSCKVSGYTLTALSIHWVRQAPGKGLEWMGNFDPGDGETIHAQKFQGRVTMTGDTSTDTAYMELSSLRSEDTAVYYCVGVTFDYWGQGTLVTVSS
VL: EIVMTQSPATLSVSPGERATLSCRASQSVASNLAWYQQKPGQAPRLLLYGASTRATGIPARFSGSGSGTEFTLTISSLQSEDFALYYCQHYNNWPLTFGGGTKVEIK
notes: as for B5
B11: H1H6967N (antibody, human IgG1, V domains shown)
VH: EVQLVESGGDLVHPGRSLRLSCAASGFPFDEYAMHWVRQVPGKGLEWVSGISWSNNNIGYADSVKGRFTISRDNAKNSLYLQMNSLRPEDTAFYYCAKSGIFDSWGQGTLVTVSS
VL: EIVMTQSPATLSVSPGERATLSCRASQSVSRDLAWYQQKPGQAPRLLIHGASTRATGIPARFSGSGSGAEFTLIISSLQSEDFAVYYCQQYNNWPLTFGGGTKVEIK
notes: as for B5
B12: H1H6782P (antibody, human IgG1, V domains shown)
VH: EVQLVESGGGLVQPGRSLRLSCAASGFTFDDYAMHWVRQAPGKGLEWVSGIIWNSGHIGYGDSVKGRFTISRDNAKKSLYLQMNSLRAEDTALYYCARDSGRYQSYFDYWGQGTLVTVSS
VL: DIQMTQSPSTLSASVGDRVTITCRASHIISSWLAWYQQKPGKAPKVLIFKASSLESGVPSRFSGSGSGTEFTLTISSLQPDDFATYYCQQYNTYSRTFGQGTKVEIK
B13: H1H6790P (antibody, human IgG1, V domains shown)
VH: EVQLVESGGGLVQPGGSLRLSCAASGFTFSSYAMTWVRQAPGKGLEWVSAITGSVGNTYYADSVKGRFTISRDNSKNTLYLQMNSLGAEDTAEYYCAKGAGMTTNWYLDLWGRGTLVTVSS
VL: DIVMTQSPDSLAVSLGARATINCKSSQSVLYSSNNQNYLTWYQQKPGQPPKLLIKWASTRESGVPDRFSGSGSGTDFTLTISSLQAEDVAVYYCQQYASSPYTFGQGTKLEIK
B14: H1H6774P (antibody, human IgG1, V domains shown)
VH: EVQLVESGGGLAQPGGSLRLSCVASGFTFSTYWMSWVRQAPGKGLDWVGNIKQDGSEQNYVDSVRGRFTISRDNAKNSLFLQMNSLRAEDTGVYYCATLLTKGDYWGQGTLVTVSS
VL: DIQMTQSPSSLSASVGDSVTITCRASQDISNYLDWFQQKPGKAPKSLIYAASILQGGVPSRFSGSGYGTDFTLTISSLQPEDFATYYCRQYKTYPFTFGPGTKVDIK
B15: H1H6976N (antibody, human IgG1, V domains shown)
VH: EVQLLESGGGFVQPGGSLRLSCAASGFTFSSYAMSWVRQAPGKGLEWVSIISSNGRYTYYADSVKGRFTISRDNSKNTLYLQMNSLRAEDTAVYYCATVTGDWFDPWGQGTLVTVSS
VL: DIQLTQSPSFLSASVGDRVTITCWASQDIDISLAWYQQKPGKAPKLLIYAASTLQSGVPSKFSGSGSGTDFTLTISSLQPEDFSTYYCQQLNSYPITFGQGTRLDIK
notes: as for B5

Biological target: T1, mouse PRLR with an HA tag on HEK293 …
Assay: FACS on HEK293/mPRLR cells

Binding result, no binding:
B1
B2
B3
B4
B5
B6
B7
B8
B9
B10
B11
B12
B13
B14
B15
